{"source": "paper PMC7226950", "key": {"[1]": {"biological_target": "NY-ESO peptide on HLA-A*02:01 (human)", "experiment": "data from [41,42]; experimental binding affinity data reprinted in Table 1"}, "[2]": {"biological_target": "NY-ESO peptide on HLA-A*02:01 (human)", "experiment": "data from [41,42]; reprinted in Table 1"}, "[3]": {"biological_target": "NY-ESO, mutated peptide ESO4D (4D, 9V) peptide on HLA-A*02:01 (human)", "experiment": "data from [41,42]; reprinted in Table 1"}}}
{"substance": "1G4", "values": [{"measurement": "Kd", "setting": "[1]", "value": 14, "unit": "µM"}, {"measurement": "koff", "setting": "[2]", "value": 0.82, "unit": "s⁻¹"}, {"measurement": "kon", "setting": "[2]", "value": 57000, "unit": "M⁻¹ s⁻¹"}, {"measurement": "t1/2", "setting": "[2]", "value": 0.84, "unit": "s"}, {"measurement": "Kd", "setting": "[3]", "value": 252, "unit": "µM"}, {"measurement": "koff", "setting": "[3]", "value": 2.59, "unit": "s⁻¹"}, {"measurement": "kon", "setting": "[3]", "value": 10000, "unit": "M⁻¹ s⁻¹"}, {"measurement": "t1/2", "setting": "[3]", "value": 0.27, "unit": "s"}]}
